From patent US20250136702A1, “HUMAN LIFR ANTIGEN BINDING PROTEIN, PREPARATION METHOD THEREFOR, AND APPLICATION THEREOF” (NONA BIOSCIENCES (SUZHOU) CO., LTD., priority 2020, published 2025)

How the values were obtained:
[1] = target: human LIFR/gp130 heterodimer expressed on the surface of 293T cells (human) (UniProt P42702); experiment: flow cytometry on HEK293T-huLIFR/gp130 cells, median fluorescence, span of the fitted curve
[2] = target: human LIFR expressed on the surface of 293T cells (human) (UniProt P42702); experiment: flow cytometry on HEK293T-huLIFR cells, median fluorescence, span of the fitted curve
Chain of human LIFR expressed on the surface of 293T cells (human) (P42702 45-1097): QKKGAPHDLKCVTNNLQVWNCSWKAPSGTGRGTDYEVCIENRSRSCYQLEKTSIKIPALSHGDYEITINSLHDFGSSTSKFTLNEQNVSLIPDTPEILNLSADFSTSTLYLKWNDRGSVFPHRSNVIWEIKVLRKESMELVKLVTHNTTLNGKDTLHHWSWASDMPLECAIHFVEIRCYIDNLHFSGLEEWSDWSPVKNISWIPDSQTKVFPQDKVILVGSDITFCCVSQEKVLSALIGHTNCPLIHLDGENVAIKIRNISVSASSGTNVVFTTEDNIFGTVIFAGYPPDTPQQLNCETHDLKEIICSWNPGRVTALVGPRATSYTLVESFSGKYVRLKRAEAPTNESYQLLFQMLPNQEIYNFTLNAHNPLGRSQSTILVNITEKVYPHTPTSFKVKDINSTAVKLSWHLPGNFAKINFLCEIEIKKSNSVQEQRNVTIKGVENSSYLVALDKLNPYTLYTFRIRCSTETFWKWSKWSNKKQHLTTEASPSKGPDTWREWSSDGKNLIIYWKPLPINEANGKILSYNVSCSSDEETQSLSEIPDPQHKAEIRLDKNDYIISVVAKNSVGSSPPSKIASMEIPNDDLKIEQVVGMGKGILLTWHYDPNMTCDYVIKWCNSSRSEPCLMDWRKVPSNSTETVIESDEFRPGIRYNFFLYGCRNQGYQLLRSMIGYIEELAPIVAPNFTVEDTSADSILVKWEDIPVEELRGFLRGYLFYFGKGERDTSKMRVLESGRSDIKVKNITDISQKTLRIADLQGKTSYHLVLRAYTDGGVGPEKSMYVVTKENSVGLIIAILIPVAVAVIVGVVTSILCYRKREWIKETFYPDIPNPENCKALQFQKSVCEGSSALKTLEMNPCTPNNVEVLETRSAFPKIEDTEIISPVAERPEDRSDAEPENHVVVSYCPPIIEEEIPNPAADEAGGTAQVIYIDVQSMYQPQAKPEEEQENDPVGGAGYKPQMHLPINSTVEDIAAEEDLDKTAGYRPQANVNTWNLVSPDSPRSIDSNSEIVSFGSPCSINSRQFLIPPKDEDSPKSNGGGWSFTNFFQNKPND

Chain of human LIFR/gp130 heterodimer expressed on the surface of 293T cells (human) (P42702 45-1097, chain 1 of 2): as the sequence (P42702 45-1097) above
Chain of human LIFR/gp130 heterodimer expressed on the surface of 293T cells (human) (P40189 23-918, chain 2 of 2, further chain): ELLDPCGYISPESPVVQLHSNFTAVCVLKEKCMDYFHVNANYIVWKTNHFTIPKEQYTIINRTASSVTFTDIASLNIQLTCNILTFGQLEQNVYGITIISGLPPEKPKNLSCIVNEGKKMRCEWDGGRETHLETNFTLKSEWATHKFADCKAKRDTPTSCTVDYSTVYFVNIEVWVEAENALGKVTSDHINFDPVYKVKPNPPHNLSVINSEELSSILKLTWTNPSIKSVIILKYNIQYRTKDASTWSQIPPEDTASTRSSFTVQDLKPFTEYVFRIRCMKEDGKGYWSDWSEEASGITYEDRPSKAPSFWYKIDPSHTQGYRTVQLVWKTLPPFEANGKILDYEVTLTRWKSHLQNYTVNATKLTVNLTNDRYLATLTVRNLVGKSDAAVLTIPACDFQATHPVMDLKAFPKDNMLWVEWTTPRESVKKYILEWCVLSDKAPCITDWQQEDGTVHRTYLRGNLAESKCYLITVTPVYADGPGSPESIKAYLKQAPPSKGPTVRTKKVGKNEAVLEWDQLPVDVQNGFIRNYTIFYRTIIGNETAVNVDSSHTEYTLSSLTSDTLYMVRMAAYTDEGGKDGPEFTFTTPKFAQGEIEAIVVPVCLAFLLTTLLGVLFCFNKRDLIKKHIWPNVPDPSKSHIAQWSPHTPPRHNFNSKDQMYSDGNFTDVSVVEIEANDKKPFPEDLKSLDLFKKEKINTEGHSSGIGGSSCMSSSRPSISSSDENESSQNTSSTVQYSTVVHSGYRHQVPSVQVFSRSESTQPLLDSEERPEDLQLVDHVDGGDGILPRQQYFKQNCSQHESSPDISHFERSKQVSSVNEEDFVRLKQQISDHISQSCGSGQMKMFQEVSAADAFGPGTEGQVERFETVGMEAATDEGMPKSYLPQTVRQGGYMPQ

## hIgG1 (antibody)
[1]
  Span: 90.1
[2]
  Span: 12
